From patent publication US20220283175A1, “METALLOENZYMES FOR BIOMOLECULAR RECOGNITION OF N-TERMINAL MODIFIED PEPTIDES” (Encodia, Inc., priority 2020, published 2022)

Columns and labels:
Assay in all cases: cell-based or functional assay
[1] = target: wild-type human carbonic anhydrase II (hCAII) protein (human) (UniProt P00918)
[2] = target: M64-AAEIR
[3] = target: M64-LAEIR
[4] = target: M64-EAEIR
[5] = target: M64-FAEIR
[6] = target: M64-DAEIR

| IC50 (µM), hCAII functional assay [1] [µM] | IC50 (inhibition of pNPA hydrolysis, colorimetric assay) [2] [µM] | IC50 (inhibition of pNPA hydrolysis, colorimetric assay) [3] [µM] | IC50 (inhibition of pNPA hydrolysis, colorimetric assay) [4] [µM] | IC50 (inhibition of pNPA hydrolysis, colorimetric assay) [5] [µM] | IC50 (inhibition of pNPA hydrolysis, colorimetric assay) [6] [µM] | Substance |
| --- | --- | --- | --- | --- | --- | --- |
| 152 | – | – | – | – | – | FAAAE (peptide) |
| – | 0.109 | 0.016 | 1.09 | 0.012 | 0.136 | SEQ ID NO: 58 (wild-type hCAI according to the heading of Table 11) (from UniProt P00915 5-261) (enzyme) |
